B1: 3H4 single domain antibody (VHH)
VHH: QVQFVESGGGLVQPGGSLRLSCAVSGSTFVVKHFAWFRQPPGNRRELVAATRGEGTTYYRDSVMGRFTISSDNPENTVYLQMTSLQPEDTAVYFCNVRSPGGEEFWGKGTLVTVSS
B2: Bispecific clone GS388 (9E3-17aa-3H4) (bispecific antibody)
chain: QLQLVEFGGGLVQAGGSLRLSCAASGSIFRGNAMVWYRQAPGKERELVATITNGGSTNYADSVKGRFTISRDNAKNTVYLQMNSLKPEDTAIYYCNDVIRGESGIYYPLNYWGQGTQVTVSSGGSEGGGSGGGGESGGGQVQFVESGGGLVQPGGSLRLSCAVSGSTFVVKHFAWFRQPPGNRRELVAATRGEGTTYYRDSVMGRFTISSDNPENTVYLQMTSLQPEDTAVYFCNVRSPGGEEFWGKGTLVTVSS
B3: 9E3 single domain antibody (VHH)
VHH: QLQLVEFGGGLVQAGGSLRLSCAASGSIFRGNAMVWYRQAPGKERELVATITNGGSTNYADSVKGRFTISRDNAKNTVYLQMNSLKPEDTAIYYCNDVIRGESGIYYPLNYWGQGTQVTVSS

Columns and labels:
[1] = target: Recombinant Human PD-1 (R&D Systems Inc) (human) (UniProt Q15116); assay: ELISA blocking, PD-1 coated, biotinylated PD-L1Fc, streptavidin-HRP; antibody at 10000 ng/ml
UniProt Q15116, sequence (Q15116 25-167 limits assumed): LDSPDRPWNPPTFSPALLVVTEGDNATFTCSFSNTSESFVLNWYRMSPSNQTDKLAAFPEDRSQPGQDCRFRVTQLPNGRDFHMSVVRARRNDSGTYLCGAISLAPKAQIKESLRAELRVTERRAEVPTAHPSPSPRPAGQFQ

[2] = target: Recombinant Human PD-1 (R&D Systems Inc) (human) (UniProt Q15116); assay: ELISA blocking, PD-1 coated, biotinylated PD-L1Fc, streptavidin-HRP; antibody at 10 ng/ml
[3] = target: Recombinant Human PD-1 (R&D Systems Inc) (human) (UniProt Q15116); assay: ELISA blocking, PD-1 coated, biotinylated PD-L1Fc, streptavidin-HRP; antibody at 0.001 ng/ml
[4] = target: Recombinant Human PD-1 (R&D Systems Inc) (human) (UniProt Q15116); assay: ELISA blocking, PD-1 coated, biotinylated PD-L1Fc, streptavidin-HRP; antibody at 0.01 ng/ml
[5] = target: Recombinant Human PD-1 (R&D Systems Inc) (human) (UniProt Q15116); assay: ELISA blocking, PD-1 coated, biotinylated PD-L1Fc, streptavidin-HRP; antibody at 0.1 ng/ml
[6] = target: Recombinant Human PD-1 (R&D Systems Inc) (human) (UniProt Q15116); assay: ELISA blocking, PD-1 coated, biotinylated PD-L1Fc, streptavidin-HRP; antibody at 1000 ng/ml
[7] = target: Recombinant Human PD-1 (R&D Systems Inc) (human) (UniProt Q15116); assay: ELISA blocking, PD-1 coated, biotinylated PD-L1Fc, streptavidin-HRP; antibody at 1 ng/ml
[8] = target: Recombinant Human PD-1 (R&D Systems Inc) (human) (UniProt Q15116); assay: ELISA blocking, PD-1 coated, biotinylated PD-L1Fc, streptavidin-HRP; antibody at 100 ng/ml
[9] = target: Recombinant Human PD-1 (R&D Systems Inc) (human) (UniProt Q15116); assay: second ELISA blocking assay, PD-1 / PD-L1Fc; reference: unlinked mix of 9E3 and 3H4

| Binder | blocking ELISA signal (PD-L1Fc bound to PD-1) [1] | blocking ELISA signal (PD-L1Fc bound to PD-1) [2] | blocking ELISA signal (PD-L1Fc bound to PD-1) [3] | blocking ELISA signal (PD-L1Fc bound to PD-1) [4] | blocking ELISA signal (PD-L1Fc bound to PD-1) [5] | blocking ELISA signal (PD-L1Fc bound to PD-1) [6] | blocking ELISA signal (PD-L1Fc bound to PD-1) [7] | blocking ELISA signal (PD-L1Fc bound to PD-1) [8] | fold increase in blocking against a simple mix of 9E3 and 3H4 [9] [fold] |
| --- | --- | --- | --- | --- | --- | --- | --- | --- | --- |
| B1 | 0.833 | 1.1 | 1.11 | 1.08 | 1.07 | 0.927 | 1.06 | 0.964 |  |
| B2 | 0.102 | 0.947 | 1.11 | 1.12 | 1.1 | 0.103 | 1.09 | 0.197 | > 10 |
| B3 | 0.104 | 1.09 | 1.17 | 1.11 | 1.08 | 0.457 | 1.06 | 0.965 |  |
